Source: patent publication US20030032587A1, “Urocortin peptides” (The Salk Institute for Biological Studies, priority 1995, published 2003)
Bridges are numbered along the chain shown (N, C = ends). Where no end group is shown, it is not given here. [ ]: non-standard residue; d: D form.

Target: CRF receptors on anterior pituitary cells in culture
Test: cell-based or functional assay

antagonism of ACTH secretion under a challenge dose of ovine CRF, potency relative to the Standard Antagonist (times Standard Antagonist)	ACTH secretion, anterior pituitary cell cultures, potency relative to r/hCRF [times r/hCRF]	Binder
4.72	–	[dF]HLLRTLLELARTQSQREEA[dE]KNRIIFDSV-NH2 (lactam 19-22; N-terminus assumed; SMILES CC[C@H](C)[C@H](NC(=O)[C@H](CCCNC(=N)N)NC(=O)[C@H](CC(N)=O)NC(=O)[C@@H]1CCCCNC(=O)CC[C@H](NC(=O)[C@H](CCC(=O)O)NC(=O)[C@H](CCCNC(=N)N)NC(=O)[C@H](CCC(N)=O)NC(=O)[C@H](CO)NC(=O)[C@H](CCC(N)=O)NC(=O)[C@@H](NC(=O)[C@H](CCCNC(=N)N)NC(=O)[C@H](C)NC(=O)[C@H](CC(C)C)NC(=O)[C@H](CCC(=O)O)NC(=O)[C@H](CC(C)C)NC(=O)[C@H](CC(C)C)NC(=O)[C@@H](NC(=O)[C@H](CCCNC(=N)N)NC(=O)[C@H](CC(C)C)NC(=O)[C@H](CC(C)C)NC(=O)[C@H](Cc2c[nH]cn2)NC(=O)[C@H](N)Cc2ccccc2)[C@@H](C)O)[C@@H](C)O)C(=O)N[C@@H](C)C(=O)N[C@H](CCC(=O)O)C(=O)N1)C(=O)N[C@H](C(=O)N[C@@H](Cc1ccccc1)C(=O)N[C@@H](CC(=O)O)C(=O)N[C@@H](CO)C(=O)N[C@H](C(N)=O)C(C)C)[C@@H](C)CC) [(cyclo 29-32) [D-Phe11, Glu29, D-Glu31, Lys32]-Ucn(11-40)]
10.3	–	[dF]HLLRTLLELARTQSQREEAEKNRIIFDSV-NH2 (lactam 19-22; N-terminus assumed; SMILES CC[C@H](C)[C@H](NC(=O)[C@H](CCCNC(=N)N)NC(=O)[C@H](CC(N)=O)NC(=O)[C@@H]1CCCCNC(=O)CC[C@H](NC(=O)[C@H](CCC(=O)O)NC(=O)[C@H](CCCNC(=N)N)NC(=O)[C@H](CCC(N)=O)NC(=O)[C@H](CO)NC(=O)[C@H](CCC(N)=O)NC(=O)[C@@H](NC(=O)[C@H](CCCNC(=N)N)NC(=O)[C@H](C)NC(=O)[C@H](CC(C)C)NC(=O)[C@H](CCC(=O)O)NC(=O)[C@H](CC(C)C)NC(=O)[C@H](CC(C)C)NC(=O)[C@@H](NC(=O)[C@H](CCCNC(=N)N)NC(=O)[C@H](CC(C)C)NC(=O)[C@H](CC(C)C)NC(=O)[C@H](Cc2c[nH]cn2)NC(=O)[C@H](N)Cc2ccccc2)[C@@H](C)O)[C@@H](C)O)C(=O)N[C@@H](C)C(=O)N[C@@H](CCC(=O)O)C(=O)N1)C(=O)N[C@H](C(=O)N[C@@H](Cc1ccccc1)C(=O)N[C@@H](CC(=O)O)C(=O)N[C@@H](CO)C(=O)N[C@H](C(N)=O)C(C)C)[C@@H](C)CC) [(cyclo 29-32)[D-Phe11, Glu29, Lys32]-Ucn(11-40)]
4.01	–	[dY]HLLRTLLELARTQSQREEAEKNRIIFDSV-NH2 (lactam 19-22; N-terminus assumed; SMILES CC[C@H](C)[C@H](NC(=O)[C@H](CCCNC(=N)N)NC(=O)[C@H](CC(N)=O)NC(=O)[C@@H]1CCCCNC(=O)CC[C@H](NC(=O)[C@H](CCC(=O)O)NC(=O)[C@H](CCCNC(=N)N)NC(=O)[C@H](CCC(N)=O)NC(=O)[C@H](CO)NC(=O)[C@H](CCC(N)=O)NC(=O)[C@@H](NC(=O)[C@H](CCCNC(=N)N)NC(=O)[C@H](C)NC(=O)[C@H](CC(C)C)NC(=O)[C@H](CCC(=O)O)NC(=O)[C@H](CC(C)C)NC(=O)[C@H](CC(C)C)NC(=O)[C@@H](NC(=O)[C@H](CCCNC(=N)N)NC(=O)[C@H](CC(C)C)NC(=O)[C@H](CC(C)C)NC(=O)[C@H](Cc2c[nH]cn2)NC(=O)[C@H](N)Cc2ccc(O)cc2)[C@@H](C)O)[C@@H](C)O)C(=O)N[C@@H](C)C(=O)N[C@@H](CCC(=O)O)C(=O)N1)C(=O)N[C@H](C(=O)N[C@@H](Cc1ccccc1)C(=O)N[C@@H](CC(=O)O)C(=O)N[C@@H](CO)C(=O)N[C@H](C(N)=O)C(C)C)[C@@H](C)CC) [(cyclo 29-32) [D-Tyr11, Glu29, Lys32]-Ucn(11-40)]

More lines, now with the values behind:

Binder	antagonism of ACTH secretion under a challenge dose of ovine CRF, potency relative to the Standard Antagonist (times Standard Antagonist)	ACTH secretion, anterior pituitary cell cultures, potency relative to r/hCRF [times r/hCRF]
Ac-P[dS]LSIDLT[dF]HLLRTLLELARTQSQREEAEKNRIIFDSV-NH2 (lactam 27-30; SMILES CC[C@H](C)[C@H](NC(=O)[C@H](CO)NC(=O)[C@H](CC(C)C)NC(=O)[C@@H](CO)NC(=O)[C@@H]1CCCN1C(C)=O)C(=O)N[C@@H](CC(=O)O)C(=O)N[C@@H](CC(C)C)C(=O)N[C@H](C(=O)N[C@H](Cc1ccccc1)C(=O)N[C@@H](Cc1c[nH]cn1)C(=O)N[C@@H](CC(C)C)C(=O)N[C@@H](CC(C)C)C(=O)N[C@@H](CCCNC(=N)N)C(=O)N[C@H](C(=O)N[C@@H](CC(C)C)C(=O)N[C@@H](CC(C)C)C(=O)N[C@@H](CCC(=O)O)C(=O)N[C@@H](CC(C)C)C(=O)N[C@@H](C)C(=O)N[C@@H](CCCNC(=N)N)C(=O)N[C@H](C(=O)N[C@@H](CCC(N)=O)C(=O)N[C@@H](CO)C(=O)N[C@@H](CCC(N)=O)C(=O)N[C@@H](CCCNC(=N)N)C(=O)N[C@@H](CCC(=O)O)C(=O)N[C@H]1CCC(=O)NCCCC[C@@H](C(=O)N[C@@H](CC(N)=O)C(=O)N[C@@H](CCCNC(=N)N)C(=O)N[C@H](C(=O)N[C@H](C(=O)N[C@@H](Cc2ccccc2)C(=O)N[C@@H](CC(=O)O)C(=O)N[C@@H](CO)C(=O)N[C@H](C(N)=O)C(C)C)[C@@H](C)CC)[C@@H](C)CC)NC(=O)[C@H](CCC(=O)O)NC(=O)[C@H](C)NC1=O)[C@@H](C)O)[C@@H](C)O)[C@@H](C)O) [(cyclo 29-32) [Ac-Pro3,D-Ser4,D-Phe11, Glu29, Lys32]-hUcn(3-40)]	–	5.69
Ac-P[dP]LSIDLT[dF]HLLRTLLELARTQSQREEAEKNRIIFDSV-NH2 (lactam 27-30; SMILES CC[C@H](C)[C@H](NC(=O)[C@H](CO)NC(=O)[C@H](CC(C)C)NC(=O)[C@H]1CCCN1C(=O)[C@@H]1CCCN1C(C)=O)C(=O)N[C@@H](CC(=O)O)C(=O)N[C@@H](CC(C)C)C(=O)N[C@H](C(=O)N[C@H](Cc1ccccc1)C(=O)N[C@@H](Cc1c[nH]cn1)C(=O)N[C@@H](CC(C)C)C(=O)N[C@@H](CC(C)C)C(=O)N[C@@H](CCCNC(=N)N)C(=O)N[C@H](C(=O)N[C@@H](CC(C)C)C(=O)N[C@@H](CC(C)C)C(=O)N[C@@H](CCC(=O)O)C(=O)N[C@@H](CC(C)C)C(=O)N[C@@H](C)C(=O)N[C@@H](CCCNC(=N)N)C(=O)N[C@H](C(=O)N[C@@H](CCC(N)=O)C(=O)N[C@@H](CO)C(=O)N[C@@H](CCC(N)=O)C(=O)N[C@@H](CCCNC(=N)N)C(=O)N[C@@H](CCC(=O)O)C(=O)N[C@H]1CCC(=O)NCCCC[C@@H](C(=O)N[C@@H](CC(N)=O)C(=O)N[C@@H](CCCNC(=N)N)C(=O)N[C@H](C(=O)N[C@H](C(=O)N[C@@H](Cc2ccccc2)C(=O)N[C@@H](CC(=O)O)C(=O)N[C@@H](CO)C(=O)N[C@H](C(N)=O)C(C)C)[C@@H](C)CC)[C@@H](C)CC)NC(=O)[C@H](CCC(=O)O)NC(=O)[C@H](C)NC1=O)[C@@H](C)O)[C@@H](C)O)[C@@H](C)O) [(cyclo 29-32) [Ac-Pro3,D-Pro4,D-Phe11, Glu29, Lys32]-hUcn(3-40)]	–	9.9
